Columns and labels:
Format in all cases: biochemical, Bacteroides thetaiotaomicron
Details in all cases: 50 mM HEPES pH 7.0, 5 mM MgCl2, 37 °C
[1] = substrate: O=[N+]([O-])c1ccc(OP(=O)(O)O)cc1; assay: purified protein
[2] = substrate: O=P(O)(O)OC[C@H]1O[C@@](CO)(O[C@H]2O[C@H](CO)[C@@H](O)[C@H](O)[C@H]2O)[C@@H](O)[C@@H]1O; assay: initial rates, phosphate release
[3] = substrate: O=P(O)(O)OC[C@H]1O[C@H](O[C@H]2O[C@H](CO)[C@@H](O)[C@H](O)[C@H]2O)[C@H](O)[C@@H](O)[C@@H]1O; assay: initial rates, phosphate release
[4] = substrate: Nc1ncnc2c1ncn2[C@@H]1O[C@H](COP(=O)(O)OP(=O)(O)O)[C@@H](O)[C@H]1O; assay: initial rates, phosphate release
[5] = substrate: O=P(O)(O)OCC(O)CO; assay: initial rates, phosphate release
[6] = substrate: Cc1ncc(COP(=O)(O)O)c(C=O)c1O; assay: initial rates, phosphate release
[7] = substrate: O=P(O)(O)OC[C@@H](O)[C@@H](O)[C@H](O)[C@@H](O)CO; assay: initial rates, phosphate release

B1: BT1666 (Bacteroides thetaiotaomicron VPI-5482) (protein)
chain: MIKVLLLDVDGTLLSFETHKVSQSSIDALKKVHDSGIKIVIATGRAASDLHEIDAVPYDGVIALNGAECVLRDGSVIRKVAIPAQDFRKSMELAREFDFAVALELNEGVFVNRLTPTVEQIAGIVEHPVPPVVDIEEMFERKECCQLCFYFDEEAEQKVMPLLSGLSATRWHPLFADVNVAGTSKATGLSLFADYYRVKVSEIMACGDGGNDIPMLKAAGIGVAMGNASEKVQSVADFVTDTVDNSGLYKALKHFGVI
Km [1]: 0.51 ± 0.1 mM | kcat [1]: 0.055 ± 0.007 s⁻¹ | kcat/Km [1]: 110 M⁻¹ s⁻¹ | Km [2]: 1.4 ± 0.3 mM | kcat [2]: 0.11 ± 0.01 s⁻¹ | kcat/Km [2]: 79 M⁻¹ s⁻¹ | Km [3]: 2.2 ± 0.4 mM | kcat [3]: 0.3 ± 0.03 s⁻¹ | kcat/Km [3]: 140 M⁻¹ s⁻¹ | Km [4]: 1.0 (± 2) × 10^1 mM | kcat [4]: 0.45 ± 0.06 s⁻¹ | kcat/Km [4]: 45 M⁻¹ s⁻¹ | Km [5]: 5.3 ± 0.7 mM | kcat [5]: 0.42 ± 0.03 s⁻¹ | kcat/Km [5]: 79 M⁻¹ s⁻¹ | Km [6]: 4.1 ± 0.5 mM | kcat [6]: 0.29 ± 0.01 s⁻¹ | kcat/Km [6]: 70 M⁻¹ s⁻¹ | Km [7]: 6.5 ± 3 mM | kcat [7]: 0.42 ± 0.06 s⁻¹ | kcat/Km [7]: 65 M⁻¹ s⁻¹
